Measurements as given in patent publication EP4722245A1, “ANTIBODY TARGETING ITGA2, ANTIBODY DRUG CONJUGATE THEREOF, AND USE” (Foreseen Technology (Beijing) Co., Ltd., priority 2023, dated 2024).

T1: ITGA2-His (UniProt P17301 30-1132, limits assumed)
T1 construct: Coated on the ELISA plate at 2 ug/mL; whole entry P17301 is named; also called ITGA2 protein; not shown: His tag
T1 sequence (looked up): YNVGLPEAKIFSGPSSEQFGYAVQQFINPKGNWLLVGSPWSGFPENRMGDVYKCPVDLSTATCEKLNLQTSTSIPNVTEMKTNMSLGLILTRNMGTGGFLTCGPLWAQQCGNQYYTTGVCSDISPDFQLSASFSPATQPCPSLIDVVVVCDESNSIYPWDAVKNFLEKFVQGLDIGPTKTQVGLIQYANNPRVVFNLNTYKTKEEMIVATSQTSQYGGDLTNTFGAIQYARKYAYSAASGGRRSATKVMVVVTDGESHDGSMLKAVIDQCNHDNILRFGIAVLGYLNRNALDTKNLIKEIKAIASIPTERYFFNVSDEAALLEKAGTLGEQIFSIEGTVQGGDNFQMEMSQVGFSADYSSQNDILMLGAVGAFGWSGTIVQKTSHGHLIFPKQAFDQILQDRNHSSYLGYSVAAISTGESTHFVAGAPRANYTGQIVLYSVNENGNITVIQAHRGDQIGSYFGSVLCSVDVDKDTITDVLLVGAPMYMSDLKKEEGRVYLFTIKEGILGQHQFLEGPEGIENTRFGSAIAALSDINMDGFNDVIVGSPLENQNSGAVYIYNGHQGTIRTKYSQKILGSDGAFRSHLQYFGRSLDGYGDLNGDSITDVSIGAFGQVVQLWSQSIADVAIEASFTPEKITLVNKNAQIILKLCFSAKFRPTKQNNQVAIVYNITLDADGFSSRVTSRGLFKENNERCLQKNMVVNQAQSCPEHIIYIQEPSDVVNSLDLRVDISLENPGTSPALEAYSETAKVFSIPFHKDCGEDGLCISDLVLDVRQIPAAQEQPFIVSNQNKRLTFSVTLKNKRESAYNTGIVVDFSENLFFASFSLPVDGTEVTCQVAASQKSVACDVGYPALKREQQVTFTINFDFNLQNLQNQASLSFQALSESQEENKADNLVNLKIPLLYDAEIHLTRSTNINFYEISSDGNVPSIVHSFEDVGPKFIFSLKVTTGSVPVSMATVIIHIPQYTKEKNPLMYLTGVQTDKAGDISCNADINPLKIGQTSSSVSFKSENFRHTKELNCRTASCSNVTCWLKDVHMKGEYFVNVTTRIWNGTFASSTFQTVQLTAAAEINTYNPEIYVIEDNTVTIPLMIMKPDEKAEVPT

T2: ITGA2 protein on the surface of human tumor cells (human, UniProt P17301 30-1181)
T2 construct: whole, on cells; Endogenously expressed; the cell line is named under assay or readout; also called Integrin alpha-2; ITGA2-positive HuCCT1 cells
T2 sequence (looked up): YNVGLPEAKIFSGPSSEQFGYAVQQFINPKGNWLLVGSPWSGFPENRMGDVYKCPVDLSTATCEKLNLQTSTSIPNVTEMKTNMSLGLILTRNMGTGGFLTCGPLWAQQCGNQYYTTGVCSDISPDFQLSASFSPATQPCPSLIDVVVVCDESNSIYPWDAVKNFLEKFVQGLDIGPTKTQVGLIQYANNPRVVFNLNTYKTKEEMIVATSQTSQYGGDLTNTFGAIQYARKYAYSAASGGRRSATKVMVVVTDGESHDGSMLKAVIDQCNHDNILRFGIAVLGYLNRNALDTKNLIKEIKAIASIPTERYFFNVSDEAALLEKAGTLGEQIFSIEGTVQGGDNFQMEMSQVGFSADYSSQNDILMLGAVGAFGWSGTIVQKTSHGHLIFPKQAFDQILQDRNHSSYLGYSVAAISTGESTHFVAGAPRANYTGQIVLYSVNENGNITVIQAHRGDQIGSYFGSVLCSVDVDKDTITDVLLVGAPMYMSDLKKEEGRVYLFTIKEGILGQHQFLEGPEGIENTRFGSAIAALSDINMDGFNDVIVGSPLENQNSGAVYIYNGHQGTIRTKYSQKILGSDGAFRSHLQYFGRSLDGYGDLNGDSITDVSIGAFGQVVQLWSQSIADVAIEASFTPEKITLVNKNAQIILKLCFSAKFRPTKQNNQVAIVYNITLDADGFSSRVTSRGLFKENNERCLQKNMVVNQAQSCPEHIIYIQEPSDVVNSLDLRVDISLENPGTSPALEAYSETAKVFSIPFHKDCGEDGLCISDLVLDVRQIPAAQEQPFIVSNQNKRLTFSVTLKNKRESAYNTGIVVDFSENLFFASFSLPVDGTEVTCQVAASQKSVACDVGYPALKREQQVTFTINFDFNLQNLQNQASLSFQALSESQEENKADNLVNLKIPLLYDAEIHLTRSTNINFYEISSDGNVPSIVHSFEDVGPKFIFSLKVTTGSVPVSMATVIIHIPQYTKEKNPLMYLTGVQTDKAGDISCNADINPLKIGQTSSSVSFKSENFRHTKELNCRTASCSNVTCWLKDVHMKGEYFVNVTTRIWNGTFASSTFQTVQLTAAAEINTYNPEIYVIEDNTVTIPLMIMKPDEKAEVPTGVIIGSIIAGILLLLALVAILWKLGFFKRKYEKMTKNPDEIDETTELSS


Key:
ITGA2-His = molecular target: T1, ITGA2-His; test: ELISA, plate coated with 2 ug/mL ITGA2-His, anti-human IgG-Fc-HRP detection
[1] = molecular target: T2, ITGA2 protein on the surface of human …; test: flow cytometry on HuCCT1 cells

Row | Binder | EC50 (ITGA2-His) | EC50 [1]
1 | Chimeric mouse antibody FS002-A103 (antibody, human IgG1, kappa, V domains shown, Chimeric; expressed in ExpiCHO-S) VH: QVQLQQSGAELVRPGASVTLSCKASGYTFTDYEMHWVKQTPVHGLEWIGVIDPETGGTTYNQKFNDKATLTADKSSSTAYMDLRSLTSEDSAVYYCSRSGYYVSSYESYAMDYWGQGTSVTVSS VL: DIVMTQSPKSMSMSVGERVTLSCKASENVGTYVSWYQQKPEQSPKLLIYGASTRESGVPDRFTGSGSGTDFTLTISSVQAEDLAVYYCQNDYSYPFTFGSGTKLEIKR | 0.017 nM | 0.633 nM
2 | Humanized antibody FS002-A153-H5L2 (antibody, human IgG1, kappa, V domains shown, Humanized IgG1 kappa) VH: QVQLVQSGAEVKKPGASVKVSCKASGYTFTDYEMHWVRQAPGQGLEWMGTIDPETGGTTYAQKFQGRVTMTADTSISTAYMELSRLRSDDTAVYYCARSGYYVSSYESYAMDYWGQGTTVTVSS VL: DIVMTQSPDSLAVSLGERVTMNCKSSQSLLNSGNQKNYLTWYQQKPGQPPKLLIYGASTRESGVPDRFSGSGSGTDFTLTISSLQAEDVAVYYCQNDYSYPFTFGGGTKLEIKR | 0.009 nM | 0.22 nM
3 | Humanized antibody FS002-A153-H3L3 (antibody, human IgG1, kappa, V domains shown, Humanized IgG1 kappa) VH: QVQLVQSGAEVKKPGASVKLSCKASGYTFTDYEMHWVRQAPGQGLEWIGTIDPETGGTTYNQKFQGRVTLTADTSISTAYMELSRLRSDDTAVYYCSRSGYYVSSYESYAMDYWGQGTTVTVSS VL: DIVMTQSPDSLAVSLGERATINCKSSQSLLNSGNQKNYLTWYQQKPGQPPKLLIYGASTRESGVPDRFSGSGSGTDFTLTISSLQAEDVAVYYCQNDYSYPFTFGGGTKLEIKR | 0.014 nM | 0.42 nM
4 | Humanized antibody FS002-A153-H4L2 (antibody, human IgG1, kappa, V domains shown, Humanized IgG1 kappa) VH: QVQLVQSGAEVKKPGASVKVSCKASGYTFTDYEMHWVRQAPGQGLEWMGTIDPETGGTTYAQKFQGRVTLTADTSISTAYMELSRLRSDDTAVYYCSRSGYYVSSYESYAMDYWGQGTTVTVSS VL: DIVMTQSPDSLAVSLGERVTMNCKSSQSLLNSGNQKNYLTWYQQKPGQPPKLLIYGASTRESGVPDRFSGSGSGTDFTLTISSLQAEDVAVYYCQNDYSYPFTFGGGTKLEIKR | 0.011 nM | 0.313 nM
5 | Humanized antibody FS002-A153-H5L1 (antibody, human IgG1, kappa, V domains shown, Humanized IgG1 kappa) VH: QVQLVQSGAEVKKPGASVKVSCKASGYTFTDYEMHWVRQAPGQGLEWMGTIDPETGGTTYAQKFQGRVTMTADTSISTAYMELSRLRSDDTAVYYCARSGYYVSSYESYAMDYWGQGTTVTVSS VL: DIVMTQSPDSLAVSLGERVTMSCKSSQSLLNSGNQKNYLTWYQQKPGQPPKLLIYGASTRESGVPDRFTGSGSGTDFTLTISSLQAEDVAVYYCQNDYSYPFTFGGGTKLEIKR | 0.027 nM | 0.58 nM
6 | Humanized antibody FS002-A153-H5L4 (antibody, human IgG1, kappa, V domains shown, Humanized IgG1 kappa) VH: QVQLVQSGAEVKKPGASVKVSCKASGYTFTDYEMHWVRQAPGQGLEWMGTIDPETGGTTYAQKFQGRVTMTADTSISTAYMELSRLRSDDTAVYYCARSGYYVSSYESYAMDYWGQGTTVTVSS VL: DIVMTQSPPTLSVSPGERVTMSCKSSQSLLNSGNQKNYLTWYQQKPGQAPRLLIYGASTRESGVPDRFSGSGSGTDFTLTISSLQPEDFAVYYCQNDYSYPFTFGGGTKLEIKR | 0.024 nM | 0.487 nM
7 | Humanized antibody FS002-A153-H5L5 (antibody, human IgG1, kappa, V domains shown, Humanized IgG1 kappa) VH: QVQLVQSGAEVKKPGASVKVSCKASGYTFTDYEMHWVRQAPGQGLEWMGTIDPETGGTTYAQKFQGRVTMTADTSISTAYMELSRLRSDDTAVYYCARSGYYVSSYESYAMDYWGQGTTVTVSS VL: EIVMTQSPPTLSLSPGERVTMSCRSSQSLLNSGNQKNYLTWYQQKPGQAPRLLIYGASTRESGVPARFSGSGSGTDFTLTISSLQPEDFAVYYCQNDYSYPFTFGGGTKLEIKR | 0.022 nM | 0.48 nM
8 | Humanized antibody FS002-A208-H4L4 (antibody, human IgG1, kappa, V domains shown, Humanized IgG1 kappa) VH: QVQLVQSGAEVKKPGASVKVSCKASGYTFTDYEIHWVRQAPGQGLEWIGAIDPETGGTNYNQKFQGRVTLTADTSISTAYMELSRLRSDDTAVYYCSRSGYYVSNYESYAMDYWGQGTTVTVSS VL: DIQMTQSPSSLSASVGDRVTITCRASQNVGTNVAWYQQKPEKAPKSLIYSASYRFSGVPSRFSGSGSGTDFTLTISSLQPEDFATYYCQQYNIYPLSFGGGTKLELKR | 0.017 nM | 0.6 nM
9 | Humanized antibody FS002-A208-H3L4 (antibody, human IgG1, kappa, V domains shown, Humanized IgG1 kappa) VH: QVQLVQSGAEVKKPGASVKVSCKASGYTFTDYEIHWVRQAPGQGLEWIGAIDPETGGTNYNQKFNDRVTLTADKSISTAYMELSRLRSDDTAVYYCSRSGYYVSNYESYAMDYWGQGTTVTVSS VL: DIQMTQSPSSLSASVGDRVTITCRASQNVGTNVAWYQQKPEKAPKSLIYSASYRFSGVPSRFSGSGSGTDFTLTISSLQPEDFATYYCQQYNIYPLSFGGGTKLELKR | 0.022 nM | 0.587 nM
10 | Humanized antibody FS002-A208-H5L4 (antibody, human IgG1, kappa, V domains shown, Humanized IgG1 kappa) VH: QVQLVQSGAEVKKPGASVKVSCKASGYTFTDYEIHWVRQAPGQGLEWMGAIDPETGGTNYAQKFQGRVTMTADTSISTAYMELSRLRSDDTAVYYCSRSGYYVSNYESYAMDYWGQGTTVTVSS VL: DIQMTQSPSSLSASVGDRVTITCRASQNVGTNVAWYQQKPEKAPKSLIYSASYRFSGVPSRFSGSGSGTDFTLTISSLQPEDFATYYCQQYNIYPLSFGGGTKLELKR | 0.018 nM | 0.627 nM
11 | Humanized antibody FS002-A226-H4L3 (antibody, human IgG1, kappa, V domains shown, Humanized IgG1 kappa) VH: QVQLVQSGAEVKKPGASVKVSCKASGYTFTDYEIHWVRQAPGQGLEWIGAIDPETGGTNYNQKFQGRVTLTADTSISTAYMELSRLRSDDTAVYYCSRSGYYVSNYESYAMDYWGQGTTVTVSS VL: DIQITQSPSSMSASVGDRVTITCKASQDIKSYLSWYQQKPGKAPKLLIYDTSNLASGVPSRFSGSGSGTDYTLTISSLQPEDFATYYCQQWSSYPFTFGGGTKLEIKR | 0.024 nM | 0.533 nM
12 | Humanized antibody FS002-A226-H3L4 (antibody, human IgG1, kappa, V domains shown, Humanized IgG1 kappa) VH: QLQLVQSGAEVKKPGASVKVSCKASGYTFTDYEIHWVRQAPGQGLEWIGAIDPETGGTNYNQKFNDRVTLTADTSISTAYMELSRLRSDDTAVYYCSRSGYYVSNYESYAMDYWGQGTTVTVSS VL: DIQLTQSPSSLSASVGDRVTITCRASQDIKSYLSWYQQKPGKAPKLLIYDTSNLASGVPSRFSGSGSGTDFTLTISSLQPEDFATYYCQQWSSYPFTFGGGTKLEIKR | 0.023 nM | 0.28 nM
13 | Humanized antibody FS002-A226-H5L3 (antibody, human IgG1, kappa, V domains shown, Humanized IgG1 kappa) VH: QVQLVQSGAEVKKPGASVKVSCKASGYTFTDYEIHWVRQAPGQGLEWMGAIDPETGGTNYAQKFQGRVTMTADTSISTAYMELSRLRSDDTAVYYCSRSGYYVSNYESYAMDYWGQGTTVTVSS VL: DIQITQSPSSMSASVGDRVTITCKASQDIKSYLSWYQQKPGKAPKLLIYDTSNLASGVPSRFSGSGSGTDYTLTISSLQPEDFATYYCQQWSSYPFTFGGGTKLEIKR | 0.023 nM | 0.58 nM
